The text below walks through data of publication PMC9344466, “The Dual Roles of MAGE-C2 in p53 Ubiquitination and Cell Proliferation Through E3 Ligases MDM2 and TRIM28” (Frontiers in Cell and Developmental Biology, 2022).

The target in this experiment is T1, SUMO-MDM2 (full length, residues 1-491) (human, UniProt Q00987 1-491).
T1 construct: MDM2, human, full length, residues 1-491; cloned into a SUMO vector (modified pET-28a); eluted without tag cleavage; also called sumo-tagged MDM2; SUMO-MDM2 fusion protein; source: E. coli BL21 (DE3), purified (HisTrap, Superdex 200)
T1 sequence (Q00987 whole entry, the tested form may be a part): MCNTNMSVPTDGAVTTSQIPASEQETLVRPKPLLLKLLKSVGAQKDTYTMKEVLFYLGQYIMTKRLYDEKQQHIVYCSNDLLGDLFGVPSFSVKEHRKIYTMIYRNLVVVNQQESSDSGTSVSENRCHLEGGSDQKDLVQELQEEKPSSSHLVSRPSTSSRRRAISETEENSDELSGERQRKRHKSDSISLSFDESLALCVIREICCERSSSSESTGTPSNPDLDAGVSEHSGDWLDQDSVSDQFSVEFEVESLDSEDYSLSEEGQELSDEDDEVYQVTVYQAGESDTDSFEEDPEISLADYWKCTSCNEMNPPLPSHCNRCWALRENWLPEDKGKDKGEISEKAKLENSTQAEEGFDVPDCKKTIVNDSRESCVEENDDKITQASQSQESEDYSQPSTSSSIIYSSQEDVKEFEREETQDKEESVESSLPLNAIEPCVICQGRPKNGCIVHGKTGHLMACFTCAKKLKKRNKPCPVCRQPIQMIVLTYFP
Description: pull-down; GST-tagged MAGE-C2 proteins on glutathione Sepharose beads, SUMO-MDM2 added; both expressed in bacterium; 20 mM Tris pH 8, 150 mM NaCl, 0.2 mM TCEP, 0.02% Triton-100, 5% milk powder, 4°C; anti-MDM2 Western blot (Figure 2A). As to conditions: both partners purified. (In western blotting, separated proteins are transferred to a membrane and probed.)

B1: GST-tagged MAGE-C2 full length (residues 1-373) (natural protein, human, UniProt Q9UBF1 1-373, looked up)
chain: MPPVPGVPFRNVDNDSPTSVELEDWVDAQHPTDEEEEEASSASSTLYLVFSPSSFSTSSSLILGGPEEEEVPSGVIPNLTESIPSSPPQGPPQGPSQSPLSSCCSSFSWSSFSEESSSQKGEDTGTCQGLPDSESSFTYTLDEKVAELVEFLLLKYEAEEPVTEAEMLMIVIKYKDYFPVILKRAREFMELLFGLALIEVGPDHFCVFANTVGLTDEGSDDEGMPENSLLIIILSVIFIKGNCASEEVIWEVLNAVGVYAGREHFVYGEPRELLTKVWVQGHYLEYREVPHSSPPYYEFLWGPRAHSESIKKKVLEFLAKLNNTVPSSFPSWYKDALKDVEERVQATIDTADDATVMASESLSVMSSNVSFSE
notes: MAGE-C2, human, full length, residues 1-373; synthetic gene in pGEX-6p-1 with a 3C protease site after GST; In the ubiquitination assays the GST tag had been cut off with 3C protease; in the pull-down GST was kept; also called MAGE-C2 FL; GST-MAGE-C2; source: E. coli BL21 (DE3), purified (glutathione Sepharose); not shown: GST, N-terminal, kept
In the case of B1, the binding result is listed as “binds”.

B2: GST-tagged MAGE-C2 MHD domain (residues 140-350) (domain or fragment, human, UniProt Q9UBF1 140-350, looked up)
chain: TLDEKVAELVEFLLLKYEAEEPVTEAEMLMIVIKYKDYFPVILKRAREFMELLFGLALIEVGPDHFCVFANTVGLTDEGSDDEGMPENSLLIIILSVIFIKGNCASEEVIWEVLNAVGVYAGREHFVYGEPRELLTKVWVQGHYLEYREVPHSSPPYYEFLWGPRAHSESIKKKVLEFLAKLNNTVPSSFPSWYKDALKDVEERVQATIDT
notes: MAGE-C2, human, MAGE homology domain (MHD), residues 140-350; synthetic gene in pGEX-6p-1; In the ubiquitination assays other forms were used (GST cut off in vitro; Myc-tagged in HEK293T cells); also called MHD^WT; GST-MAGE-C2; source: E. coli BL21 (DE3), purified (glutathione Sepharose); not shown: GST, N-terminal, kept
As for B2, the binding result is listed as “binds”.
